{
  "source": "patent US6423680B1",
  "about": "“Inhibitor of platelet activating factor” (HSC Research and Development Limited Partnership, priority 1998, dated 2002)",
  "key": {"[1]": {"tested_on": "PAF", "assay": "Calcium release assay in INDO-1 AM-loaded neutrophils", "format": "cell-based, human", "method": "Neutrophils were isolated from heparinized venous blood collected from healthy volunteers as previously reported (Laneuville et al., Biochem. J. 295:393-397, 1993). Neutrophils (1 ml, 10^7 cells) were loaded with a […] solution of a fluorescent dye, INDO-1 AM (Calbiochem.) for use in calculating [Ca^2+]i as previously reported (Laneuville et al., supra; Reynaud and Pace-Asciak, Prostaglandins Leukot. Essent. Fatty Acids 56:9-12,1997). For each measurement, 2×10^6 cells were used in 1 ml of cell medium in a temperature-controlled (37° C.) plastic cuvette with continuous stirring. Varying concentrations of functional GM2 activator protein and non-functional truncated GM2 activator protein (i.e. 0, 0.32 and 0.8 nmol) were added to individual cuvettes. Following equilibration of the assay mix, PAF (0.002 nmol) was added and the increase in [Ca^2+]i calculated by a determination of fluorescence. Fluorescence was measured using a Perkin-Elmer fluorescence spectrophotometer as previously reported (Reynaud and Pace-Asciak, supra).\nThe PAF-response was inhibited by 75% when 800 pmol (15 μg/ml) of activator was present, but not at all in the presence of 800 pmol of the non-functional truncated activator."}, "[2]": {"target": "T1, GM2 activator protein (Homo sapiens, UniProt P17900)", "T1 construct": "ID NO; His6 (N); made in house", "T1 sequence (P17900 32-193)": "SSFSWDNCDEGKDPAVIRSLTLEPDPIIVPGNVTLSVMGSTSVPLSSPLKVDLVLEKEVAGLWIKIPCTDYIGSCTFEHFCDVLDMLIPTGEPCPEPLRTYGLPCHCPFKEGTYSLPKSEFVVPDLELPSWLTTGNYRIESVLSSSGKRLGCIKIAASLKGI", "assay": "Fluorescence dequenching assay (R-18 transport between liposomes; ligand binding)", "method": "The ability of the activator protein to bind GM2 ganglioside, PAF, N-formyl-Met-Leu-Phe (fMLP), or leukotriene B4 (LTB4) was assessed using a fluorescence dequenching assay. This assay was first used to evaluate the ability of the activator to transport a self-quenching fluorescence dye, R-18 (octadecylrhodamine conjugated to a saturated C-18 hydrocarbon chain) (obtained from Molecular Probes), between labeled and unlabeled liposomes (phosphatidylcholine containing large unilamellar vesicles, PC-LUV8). An increase in fluorescence over time when the activator protein and unlabeled liposomes were admixed with R-18 labeled liposomes indicates the ability of the activator to transport the R-18 dye, the fluorescence of which is proportional to concentration of dye that is transported to the unlabelled liposomes. […]\nThe R-18 labeled liposomes were prepared as follows. […] The column was then eluted with NHE buffer to yield a quantity of labeled liposomes sufficient for 10 assays.\nIn each fluorescence dequenching assay, 5 μg of activator protein was mixed with 630 nmol of unlabeled liposomes. […] The rate of increase in fluorescence emission was then determined by monitoring at 590 nm, using an excitation wavelength of 560 nm, on a 650-40 fluorometer (Perkin-Elmer). […]\nThe fluorescence dequenching of the R-18 liposome preparations was measured and calculated as follows. […]"}, "[3]": {"target": "T2, β-hexosaminidase A (Homo sapiens, UniProt P06865+P07686)", "T2 sequence (P06865 89-529)": "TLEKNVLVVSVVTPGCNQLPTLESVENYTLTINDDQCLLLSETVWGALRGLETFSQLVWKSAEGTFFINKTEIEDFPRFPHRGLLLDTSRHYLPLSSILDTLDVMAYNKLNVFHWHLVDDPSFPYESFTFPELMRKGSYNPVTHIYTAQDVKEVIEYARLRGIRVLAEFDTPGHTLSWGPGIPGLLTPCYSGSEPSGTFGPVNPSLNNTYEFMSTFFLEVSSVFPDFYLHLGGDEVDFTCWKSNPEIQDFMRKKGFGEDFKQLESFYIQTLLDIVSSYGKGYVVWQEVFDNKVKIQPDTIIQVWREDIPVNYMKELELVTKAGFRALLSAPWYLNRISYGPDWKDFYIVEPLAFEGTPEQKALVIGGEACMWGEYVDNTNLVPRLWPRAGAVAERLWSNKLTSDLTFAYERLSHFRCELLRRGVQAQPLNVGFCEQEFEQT", "T2 sequence (P07686 122-556)": "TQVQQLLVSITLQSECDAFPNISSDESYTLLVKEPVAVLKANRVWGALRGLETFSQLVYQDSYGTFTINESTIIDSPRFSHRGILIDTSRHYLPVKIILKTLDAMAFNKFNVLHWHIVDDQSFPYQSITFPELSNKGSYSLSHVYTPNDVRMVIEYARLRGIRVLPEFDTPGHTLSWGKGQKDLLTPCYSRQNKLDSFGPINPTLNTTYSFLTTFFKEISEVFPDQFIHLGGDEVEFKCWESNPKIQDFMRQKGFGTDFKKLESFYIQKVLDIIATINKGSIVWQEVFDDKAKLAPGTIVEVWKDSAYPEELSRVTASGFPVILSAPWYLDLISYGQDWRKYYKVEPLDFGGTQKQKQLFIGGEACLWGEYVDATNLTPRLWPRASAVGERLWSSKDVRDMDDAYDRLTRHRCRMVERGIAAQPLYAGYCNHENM", "T2 sequence (P17900 32-193 partner)": "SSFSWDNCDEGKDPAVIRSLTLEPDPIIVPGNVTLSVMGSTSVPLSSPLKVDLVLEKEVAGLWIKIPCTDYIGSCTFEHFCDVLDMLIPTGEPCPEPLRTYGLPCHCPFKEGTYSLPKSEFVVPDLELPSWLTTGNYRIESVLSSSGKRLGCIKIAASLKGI", "assay": "Conventional biological assay: co-factor for hydrolysis of GM2 ganglioside by β-hexosaminidase A", "format": "biochemical", "text": "The conventional biological assay for the GM2 activator involves its function as a substrate specific co-factor for the hydrolysis of GM2 ganglioside by β-hexosaminidase A. This assay (described in detail in Meier et al., J. Biol. Chem., 266:1879-1887, 1991) requires that the activator has a functional hydrophobic binding site."}},
  "data": [
    {"molecule": "functional activator: Non-glycosylated GM2 activator protein from His6-tag bacterial expression system, SEQ ID NO: 2 (protein, His6-tag; non-glycosylated; His tag at residues 1 to 17) MRGSHHHHHHGSIEGRSSFSWDNCDEGKDPAVIRSLTLEPDPIVVPGNVTLSVVGSTSVPLSSPLKVDLVLEKEVAGLWIKIPCTDYIGSCTFEHFCDVLDMLIPTGEPCPEPLRTYGLPCHCPFKEGTYSLPKSEFVVPDLELPSWLTTGNYRIESVLSSSGKRLGCIKIAASLKGI", "values": [
      {"measurement": "inhibition of PAF-response", "setting": "[1]; 800 pmol (15 μg/ml) of activator present, PAF 0.002 nmol", "value": 75, "unit": "%"},
      {"measurement": "release of intracellular calcium pools into the cytosol after PAF", "setting": "[1]; PAF added to cuvettes containing the functional activator", "value": "significant decrease"},
      {"measurement": "change in [Ca2+]i on addition of extracellular activator protein alone", "setting": "[1]; added to suspension of INDO-1 AM-loaded cells, before PAF", "value": "did not result in a change in [Ca^2+]i"},
      {"measurement": "transport of R-18 between labeled and unlabeled liposomes", "setting": "[2]; 5 μg activator, 37° C., pH 5, increase in fluorescence over time", "value": "found to transport R-18"},
      {"measurement": "slope of fluorescence dequenching", "setting": "[2]; activator in the absence of a ligand compound", "value": "0.256 ΔFu/ΔT(min)"},
      {"measurement": "specific activity as co-factor, compared with wild-type glycosylated precursor activator (CHO cells)", "setting": "[3]", "value": "functioned in a similar manner to the wildtype activator"}
    ]}
  ]
}
